The values below come from patent US20200376119A1 (Hoffmann-La Roche, published 2020).

The target of this experiment is T1, carcinoembryonic antigen (CEA) on MKN-45 tumor cells (human, UniProt P06731 35-702).
T1 sequence (looked up): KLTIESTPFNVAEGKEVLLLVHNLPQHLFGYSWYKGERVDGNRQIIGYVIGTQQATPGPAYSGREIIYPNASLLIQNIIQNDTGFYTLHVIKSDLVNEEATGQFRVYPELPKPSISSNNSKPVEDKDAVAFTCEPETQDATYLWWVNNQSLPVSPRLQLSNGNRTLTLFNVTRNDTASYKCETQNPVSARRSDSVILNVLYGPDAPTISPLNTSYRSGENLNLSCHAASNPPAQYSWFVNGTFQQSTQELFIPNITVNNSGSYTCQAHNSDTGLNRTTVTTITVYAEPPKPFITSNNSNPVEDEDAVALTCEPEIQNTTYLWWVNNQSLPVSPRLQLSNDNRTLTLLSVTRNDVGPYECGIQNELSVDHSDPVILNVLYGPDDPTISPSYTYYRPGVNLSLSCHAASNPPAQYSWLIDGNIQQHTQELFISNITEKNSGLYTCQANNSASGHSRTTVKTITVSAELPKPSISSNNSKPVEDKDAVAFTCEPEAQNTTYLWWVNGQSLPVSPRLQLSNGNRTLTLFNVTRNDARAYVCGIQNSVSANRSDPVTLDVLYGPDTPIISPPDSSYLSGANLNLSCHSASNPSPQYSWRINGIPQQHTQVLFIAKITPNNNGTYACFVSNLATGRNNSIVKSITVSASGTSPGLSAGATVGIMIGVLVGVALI
Kind of experiment: cell-based or functional assay.

B1: CEA TCB (bispecific antibody)
chain 1: QAVVTQEPSLTVSPGGTVTLTCGSSTGAVTTSNYANWVQEKPGQAFRGLIGGTNKRAPGTPARFSGSLLGGKAALTLSGAQPEDEAEYYCALWYSNLWVFGGGTKLTVLSSASTKGPSVFPLAPSSKSTSGGTAALGCLVKDYFPEPVTVSWNSGALTSGVHTFPAVLQSSGLYSLSSVVTVPSSSLGTQTYICNVNHKPSNTKVDKKVEPKSC
chain 2: not shown
chain 3: QVQLVQSGAEVKKPGASVKVSCKASGYTFTEFGMNWVRQAPGQGLEWMGWINTKTGEATYVEEFKGRVTFTTDTSTSTAYMELRSLRSDDTAVYYCARWDFAYYVEAMDYWGQGTTVTVSSASTKGPSVFPLAPSSKSTSGGTAALGCLVKDYFPEPVTVSWNSGALTSGVHTFPAVLQSSGLYSLSSVVTVPSSSLGTQTYICNVNHKPSNTKVDKKVEPKSCDKTHTCPPCPAPEAAGGPSVFLFPPKPKDTLMISRTPEVTCVVVDVSHEDPEVKFNWYVDGVEVHNAKTKPREEQYNSTYRVVSVLTVLHQDWLNGKEYKCKVSNKALGAPIEKTISKAKGQPREPQVCTLPPSRDELTKNQVSLSCAVKGFYPSDIAVEWESNGQPENNYKTTPPVLDSDGSFFLVSKLTVDKSRWQQGNVFSCSVMHEALHNHYTQKSLSLSPGK
chain 4: DIQMTQSPSSLSASVGDRVTITCKASAAVGTYVAWYQQKPGKAPKLLIYSASYRKRGVPSRFSGSGSGTDFTLTISSLQPEDFATYYCHQYYTYPLFTFGQGTKLEIKRTVAAPSVFIFPPSDEQLKSGTASVVCLLNNFYPREAKVQWKVDNALQSGNSQESVTEQDSKDSTYSLSSTLTLSKADYEKHKVYACEVTHQGLSSPVTKSFNRGEC
For the molecule B1, the “EC50 of tumor cell killing (LDH release, MKN-45 cells with human PBMCs, E:T 10:1, 24 h)” value was determined as 0.615 nM and the “EC50 of tumor cell killing (LDH release, MKN-45 cells with human PBMCs, E:T 10:1, 48 h)” value was 0.362 nM.
